Assay results published in patent publication US20130004981A1, “SYSTEM AND METHOD FOR SELECTING MOLECULE INTERACTING WITH PROTEIN PHOSPHATASE” (priority 2011, published 2013).

How the values were obtained:
[1] = target: T1, PP2A subunits Aα, Cα and B55β2 (Homo sapiens, UniProt P30153+P67775); test: BiFC-based FRET fluorescence of PP2A holoenzyme assembly (YFPN-Aα+Cα-YFPC+B55β2-CFP) in transfected NIH3T3 cells; type: cell-based; details: NIH3T3 cells co-transfected with YFPN-Aα+Cα-YFPC+B55β2-CFP plus test plasmid; FIG. 4
T1 construct: FLAG; HA (N); Flag; expressed in transfected cells; host or cells: NIH3T3 (mouse embryonic fibroblast cell line)
Description: (§1) In the following embodiments of the present invention, NIH3T3 cells (mouse embryonic fibroblast cell line) was used, which was cultured in Dulbecco's modified Eagle's medium (DMEM) supplemented with 10% bovine serum (BS), 1% Penicillin (10 U/μl)/Streptomycin (10 μg/μl), and 1% L-Glutamine (200 mM). All of the reagents were available from GIBCO.
(§2) NIH3T3 cells were seeded into proper dishes one day before transfection. For example, 7×10^4 cells were seeded in each well of a 24-well plate; 10^6 cells were seeded in a 6 cm dish; and 3×10^6 cells were seeded in a 10 cm dish. […]
(§3) After 24 hrs, cells were washed with PBS buffer three times and fixed by 4% paraformaldehyde/0.025% glutaraldehyde for 15 ruin. […] The cells were observed by fluorescence microscopy (Zeiss, Axio observer Z1). […]
(§4) In the present embodiment, the plasmids of the following experimental groups were transfected into NIH3T3 cells with the aforementioned transfection process, and the cover glasses used in the present embodiment were prepared with the same process described in Embodiment 1. The cells were observed by fluorescence microscopy (Zeiss, Axio observer Z1), and the fluorescence and fluorescent efficiency generated from cells were programmed by Zeiss AxioVision complied with Youvan's method. […]

[2] = target: T2, PP2A subunits B56γ3, Aα and Cα (Homo sapiens, UniProt P30153+P67775); test: BiFC-based FRET fluorescence of PP2A holoenzyme assembly (YFPN-B56γ3+YFPC-Aα+CFP-Cα) in transfected NIH3T3 cells; type: cell-based; details: NIH3T3 cells co-transfected with YFPN-B56γ3+YFPC-Aα+CFP-Cα plus test plasmid; FIG. 3
T2 construct: HA; Flag; expressed in transfected cells; host or cells: NIH3T3 (mouse embryonic fibroblast cell line)
Description: as §1, §2, §3, §4

T2 sequence (P30153 whole entry): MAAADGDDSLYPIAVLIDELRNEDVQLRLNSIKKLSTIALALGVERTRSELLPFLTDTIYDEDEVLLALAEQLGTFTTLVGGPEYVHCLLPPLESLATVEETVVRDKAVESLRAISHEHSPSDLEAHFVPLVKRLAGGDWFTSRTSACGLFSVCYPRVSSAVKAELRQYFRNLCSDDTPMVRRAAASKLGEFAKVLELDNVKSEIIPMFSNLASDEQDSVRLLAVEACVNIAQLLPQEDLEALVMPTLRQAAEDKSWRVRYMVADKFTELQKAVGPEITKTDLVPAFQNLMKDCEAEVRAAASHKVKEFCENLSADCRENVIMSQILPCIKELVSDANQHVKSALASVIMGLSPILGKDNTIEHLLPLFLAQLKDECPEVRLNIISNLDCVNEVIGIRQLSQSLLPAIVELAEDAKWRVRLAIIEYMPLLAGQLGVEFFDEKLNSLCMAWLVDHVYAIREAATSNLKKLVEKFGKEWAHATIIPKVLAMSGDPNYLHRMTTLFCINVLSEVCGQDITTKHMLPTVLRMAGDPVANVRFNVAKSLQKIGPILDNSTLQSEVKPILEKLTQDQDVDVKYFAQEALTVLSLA
T2 sequence (P67775 whole entry): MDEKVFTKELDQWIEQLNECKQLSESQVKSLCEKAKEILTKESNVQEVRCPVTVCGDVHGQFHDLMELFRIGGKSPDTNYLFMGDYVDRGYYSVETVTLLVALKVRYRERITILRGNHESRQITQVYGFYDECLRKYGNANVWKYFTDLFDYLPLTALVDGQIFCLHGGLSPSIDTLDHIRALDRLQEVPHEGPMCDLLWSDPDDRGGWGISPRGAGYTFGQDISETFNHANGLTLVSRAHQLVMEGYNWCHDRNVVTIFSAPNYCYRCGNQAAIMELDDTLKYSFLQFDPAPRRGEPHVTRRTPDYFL
T1 sequence (P30153 whole entry): as the sequence (P30153 whole entry) above
T1 sequence (P67775 whole entry): as the sequence (P67775 whole entry) above

B1: ST: small T (SV40 small T antigen) expressed from pCMV5; may influence the association between the scaffold subunit and the regulatory subunit (protein, UniProt P03081 1-174, looked up)
Small t antigen: MDKVLNREESLQLMDLLGLERSAWGNIPLMRKAYLKKCKEFHPDKGGDEEKMKKMNTLYKKMEDGVKYAHQPDFGGFWDATEVFASSLNPGVDAMYCKQWPECAKKMSANCICLLCLLRMKHENRKLYRKDPLVWVDCYCFDCFRMWFGLDLCEGTLLLWCDIIGQTTYRDLKL
fluorescence and efficiency generated from cells (association between subunits A and B) [1]: only generated weak fluorescence and efficiency | fluorescence generated from cells (association between subunits A and B) [2]: did not generate any fluorescence
